Drawing on article PMC10099707, this text covers fold change AD vs WT of the co-IP band ratio CaMKII/HDAC4 (fold (AD vs WT)) for one substance.

The target in this test is HDAC4 (mouse (endogenous in hippocampal tissue)) (UniProt Q6NZM9). Put plainly: co-IP.
UniProt Q6NZM9, sequence (Q6NZM9 whole entry): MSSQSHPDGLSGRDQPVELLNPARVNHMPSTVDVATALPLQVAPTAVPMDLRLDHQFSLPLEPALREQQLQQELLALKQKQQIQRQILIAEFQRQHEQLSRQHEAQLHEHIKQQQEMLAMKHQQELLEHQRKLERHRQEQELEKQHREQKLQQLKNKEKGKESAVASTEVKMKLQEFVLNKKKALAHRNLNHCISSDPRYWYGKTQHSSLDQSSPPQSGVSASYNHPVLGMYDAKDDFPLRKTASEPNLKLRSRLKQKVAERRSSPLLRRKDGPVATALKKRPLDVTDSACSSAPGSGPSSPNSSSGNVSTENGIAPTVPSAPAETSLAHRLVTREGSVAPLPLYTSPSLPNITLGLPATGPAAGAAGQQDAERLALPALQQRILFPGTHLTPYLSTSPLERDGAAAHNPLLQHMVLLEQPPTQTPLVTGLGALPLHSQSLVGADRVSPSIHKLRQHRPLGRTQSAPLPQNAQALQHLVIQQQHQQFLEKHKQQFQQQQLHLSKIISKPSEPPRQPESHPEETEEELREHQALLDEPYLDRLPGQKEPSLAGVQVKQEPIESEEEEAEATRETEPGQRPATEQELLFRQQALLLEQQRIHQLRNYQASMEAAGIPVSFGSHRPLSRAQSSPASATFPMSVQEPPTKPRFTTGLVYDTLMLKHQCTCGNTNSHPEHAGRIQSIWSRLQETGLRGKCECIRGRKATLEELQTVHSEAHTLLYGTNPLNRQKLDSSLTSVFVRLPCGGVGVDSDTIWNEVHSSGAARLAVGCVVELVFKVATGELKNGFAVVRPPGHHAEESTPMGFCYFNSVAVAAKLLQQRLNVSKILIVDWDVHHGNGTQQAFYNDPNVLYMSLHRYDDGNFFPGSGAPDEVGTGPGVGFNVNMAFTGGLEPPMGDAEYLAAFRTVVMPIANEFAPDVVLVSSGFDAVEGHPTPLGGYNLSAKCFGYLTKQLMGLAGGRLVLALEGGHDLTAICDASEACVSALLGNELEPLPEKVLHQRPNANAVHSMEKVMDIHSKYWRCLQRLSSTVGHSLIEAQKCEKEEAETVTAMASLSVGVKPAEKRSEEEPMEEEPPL

For “Ca2+/calmodulin‐dependent protein kinase II (CaMKII) (from UniProt P11798 1-478) (enzyme)”, the fold change AD vs WT of the co-IP band ratio CaMKII/HDAC4 (fold (AD vs WT)) came to 0.61.
